According to publication PMC7102968:

Molecular target: TetR-Y42A Y42A;C68S;C88N;C121T;C144S;internal_change (UniProt P04483)
Assay: ITC
Conditions: ITC: 20 mM potassium phosphate pH 7.4, 50 mM NaCl, 25 C; EMSA: 50 mM Tris-HCl pH 8.0, 10 mM MgCl2, 25 mM NaCl, 25 ug/ml yeast tRNA, room temperature; SEC …

GGCCGGAGAAUGUUAUGGCGCGAAAGCGCAGAGAAAACCGGUC [TetR-binding aptamer K1]
Kd: 13.9 µM
